Source: PMC8402785

Key:
[1] = biological target: recombinant HAdV-D49 fibre knob protein (human adenovirus type 49 (HAdV-D49)); assay: gel electrophoresis with Coomassie staining, with or without denaturing agent; 5 µg and 10 µg of recombinant knob, with or without treatment with a denaturing agent, stained with Coomassie; validation of knob trimerisation
[2] = biological target: recombinant HAdV-C5 fibre knob protein (human adenovirus type 5 (HAdV-C5))

Substance	stoichiometry N [1]	stoichiometry N [2]
recombinant HAdV-D49 fibre knob protein (domain or fragment)	3	
recombinant HAdV-C5 fibre knob protein (domain or fragment)		3
